Tested on: Escherichia coli TOP10
Experiment: shrunken log2 fold change of peptide-encoding DNA abundance (4.5 h post-induction vs induction); higher = less antimicrobial activity (less host growth inhibition)
Conditions: time post-induction: 4.5 h; library: site-saturation at positions 5, 18, 19, 20
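Note: peptides expressed intracellularly from a pBAD plasmid library in pooled LB shake-flask culture, induced with 0.3% L-arabinose, DNA abundance read by NGS, three biological replicates, DESeq2 with apeglm shrinkage.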

Sequence	shrunken log2 fold change
RRIRKRPPRLPRPRPRPDYHPRP	-0.244
RRIRHRPPRLPRPRPRPNGAPRP	-0.18
RRIRRRPPRLPRPRPRPQFPPRP	0.133
RRIRLRPPRLPRPRPRPLLYPRP	-0.326
RRIRMRPPRLPRPRPRPHCFPRP	-0.0715
RRIRPRPPRLPRPRPRPLAKPRP	0.261
RRIRNRPPRLPRPRPRPIVYPRP	-0.528
RRIRNRPPRLPRPRPRPQCVPRP	-0.0063
RRIRIRPPRLPRPRPRPYATPRP	-0.334
RRIRFRPPRLPRPRPRPQMLPRP	-0.179
RRIRQRPPRLPRPRPRPREPPRP	0.0406
RRIRTRPPRLPRPRPRPWFLPRP	-0.401
RRIRFRPPRLPRPRPRPSCPPRP	-0.72
RRIRIRPPRLPRPRPRPKYLPRP	-0.437
RRIRDRPPRLPRPRPRPSYPPRP	-0.2
RRIRKRPPRLPRPRPRPQVQPRP	0.131
RRIRQRPPRLPRPRPRPESGPRP	0.0279
RRIRKRPPRLPRPRPRPWLVPRP	0.177
RRIRDRPPRLPRPRPRPQTPPRP	0.4
RRIRFRPPRLPRPRPRPVWKPRP	-0.0844
RRIRMRPPRLPRPRPRPYMIPRP	-0.00479
RRIRHRPPRLPRPRPRPHNKPRP	-0.866
RRIRQRPPRLPRPRPRPYSLPRP	-0.197
RRIRQRPPRLPRPRPRPASAPRP	0.196
RRIRVRPPRLPRPRPRPVCDPRP	0.0894

Sequence	shrunken log2 fold change
RRIRTRPPRLPRPRPRPEGWPRP	0.688
RRIRLRPPRLPRPRPRPYMLPRP	-1.2
RRIRFRPPRLPRPRPRPWFWPRP	-0.285
RRIRKRPPRLPRPRPRPVVTPRP	0.417
RRIRPRPPRLPRPRPRPERMPRP	0.122
RRIRRRPPRLPRPRPRPDMHPRP	-0.203
RRIRIRPPRLPRPRPRPYTMPRP	-0.758
RRIRSRPPRLPRPRPRPFYNPRP	-0.54
RRIRNRPPRLPRPRPRPMGIPRP	-0.454
RRIRSRPPRLPRPRPRPHECPRP	-0.0285
RRIRSRPPRLPRPRPRPWQNPRP	-0.194
RRIRNRPPRLPRPRPRPGKDPRP	-0.0565
RRIRTRPPRLPRPRPRPSLSPRP	0.00222
RRIRPRPPRLPRPRPRPSMQPRP	-0.29
RRIRDRPPRLPRPRPRPAIMPRP	0.373
RRIRPRPPRLPRPRPRPSPVPRP	0.0207
RRIRTRPPRLPRPRPRPMKQPRP	-0.0631
RRIRYRPPRLPRPRPRPWRSPRP	0.175
RRIRCRPPRLPRPRPRPDALPRP	0.0862
RRIRIRPPRLPRPRPRPYSFPRP	-0.307
RRIRPRPPRLPRPRPRPNTYPRP	-0.67
RRIRERPPRLPRPRPRPWKGPRP	-0.0443
RRIRGRPPRLPRPRPRPLCEPRP	1.22
RRIRMRPPRLPRPRPRPLHIPRP	-0.0533
RRIRVRPPRLPRPRPRPDRVPRP	-0.285

Sequence	shrunken log2 fold change
RRIRTRPPRLPRPRPRPMYFPRP	-0.53
RRIRERPPRLPRPRPRPIMPPRP	-0.356
RRIRERPPRLPRPRPRPFFDPRP	0.0568
RRIRYRPPRLPRPRPRPEMEPRP	-0.0352
RRIRKRPPRLPRPRPRPWNIPRP	-0.275
RRIRCRPPRLPRPRPRPFLAPRP	0.0788
RRIRGRPPRLPRPRPRPERIPRP	-0.0324
RRIRNRPPRLPRPRPRPHGFPRP	0.0815
RRIRYRPPRLPRPRPRPVMDPRP	-0.122
RRIRFRPPRLPRPRPRPYTRPRP	-0.369
RRIRTRPPRLPRPRPRPGENPRP	0.182
RRIRPRPPRLPRPRPRPYHAPRP	-0.19
RRIRCRPPRLPRPRPRPAFSPRP	-0.252
RRIRWRPPRLPRPRPRPKRTPRP	0.668
RRIRVRPPRLPRPRPRPRAMPRP	0.213
RRIRVRPPRLPRPRPRPPYYPRP	-0.363
RRIRNRPPRLPRPRPRPPIWPRP	-0.129
RRIRERPPRLPRPRPRPPGEPRP	0.439
RRIRMRPPRLPRPRPRPWDEPRP	0.391
RRIRPRPPRLPRPRPRPPICPRP	-0.474
RRIRHRPPRLPRPRPRPAFYPRP	-0.332
RRIRKRPPRLPRPRPRPYSCPRP	-0.0242
RRIRRRPPRLPRPRPRPRCPPRP	0.605
RRIRSRPPRLPRPRPRPSLTPRP	-0.138
RRIRPRPPRLPRPRPRPLCSPRP	-0.431

Sequence	shrunken log2 fold change
RRIRARPPRLPRPRPRPWSAPRP	0.132
RRIRCRPPRLPRPRPRPMMRPRP	0.0843
RRIRSRPPRLPRPRPRPNTDPRP	-0.442
RRIRFRPPRLPRPRPRPDQGPRP	-0.167
RRIRIRPPRLPRPRPRPNGNPRP	-0.365
RRIRARPPRLPRPRPRPHSEPRP	-0.0859
RRIRDRPPRLPRPRPRPGTWPRP	0.475
RRIRMRPPRLPRPRPRPEPNPRP	2.18
RRIRTRPPRLPRPRPRPGLCPRP	-0.00367
RRIRSRPPRLPRPRPRPHTRPRP	-0.453
RRIRIRPPRLPRPRPRPAQNPRP	-0.0711
RRIRPRPPRLPRPRPRPCKAPRP	-0.00218
RRIRLRPPRLPRPRPRPCPIPRP	-0.335
RRIRWRPPRLPRPRPRPQWHPRP	0.0415
RRIRQRPPRLPRPRPRPYEVPRP	-0.31
RRIRARPPRLPRPRPRPGCDPRP	0.78
RRIRGRPPRLPRPRPRPHVFPRP	0.162
RRIRWRPPRLPRPRPRPRWNPRP	-0.0693
RRIRMRPPRLPRPRPRPTTSPRP	0.499
RRIRDRPPRLPRPRPRPNANPRP	0.000903
RRIRHRPPRLPRPRPRPYCMPRP	-1.05
RRIRYRPPRLPRPRPRPCLVPRP	-0.0874
RRIRTRPPRLPRPRPRPAENPRP	0.0214
RRIRGRPPRLPRPRPRPSMAPRP	0.749
RRIRQRPPRLPRPRPRPYSCPRP	0.0133

Sequence	shrunken log2 fold change
RRIRIRPPRLPRPRPRPVSWPRP	-0.171
RRIRKRPPRLPRPRPRPLDWPRP	0.474
RRIRRRPPRLPRPRPRPWPSPRP	0.0392
RRIRYRPPRLPRPRPRPRPIPRP	-0.0521
RRIRDRPPRLPRPRPRPWKFPRP	0.0062
RRIRWRPPRLPRPRPRPKLHPRP	0.0953
RRIRCRPPRLPRPRPRPQDTPRP	-0.313
RRIRPRPPRLPRPRPRPPQMPRP	0.531
RRIRHRPPRLPRPRPRPGPMPRP	0.247
RRIRSRPPRLPRPRPRPPVRPRP	0.337
RRIRLRPPRLPRPRPRPKNRPRP	0.177
RRIRTRPPRLPRPRPRPYCAPRP	-0.732
RRIRDRPPRLPRPRPRPHNMPRP	-0.135
RRIRHRPPRLPRPRPRPWPSPRP	-0.00932
RRIRGRPPRLPRPRPRPYCHPRP	0.054
RRIRPRPPRLPRPRPRPCEIPRP	0.0471
RRIRTRPPRLPRPRPRPEWDPRP	0.064
RRIRARPPRLPRPRPRPTLPPRP	0.263
RRIRYRPPRLPRPRPRPFMQPRP	-0.403
RRIRRRPPRLPRPRPRPPYGPRP	0.0935
RRIRKRPPRLPRPRPRPAGNPRP	0.304
RRIRDRPPRLPRPRPRPDPRPRP	0.0663
RRIRTRPPRLPRPRPRPCFYPRP	-0.351
RRIRQRPPRLPRPRPRPAFYPRP	-0.0263
RRIRVRPPRLPRPRPRPLEPPRP	0.236

Source: the supplement of paper PMC9112550, “Optimization of the antimicrobial peptide Bac7 by deep mutational scanning” (BMC Biology, 2022)
